Here are results for eight molecules from US20250257143A1 (FORTE SUBSIDIARY, published 2025).

The labels stand for the following.
T1: huCD122-HIS (ARCO Bio | Cat No. CD2-H5221) (human, UniProt P14784 27-239)
T1 construct: Bought analyte of the BLI assay; also called human CD122; not shown: His tag
T1 sequence (looked up): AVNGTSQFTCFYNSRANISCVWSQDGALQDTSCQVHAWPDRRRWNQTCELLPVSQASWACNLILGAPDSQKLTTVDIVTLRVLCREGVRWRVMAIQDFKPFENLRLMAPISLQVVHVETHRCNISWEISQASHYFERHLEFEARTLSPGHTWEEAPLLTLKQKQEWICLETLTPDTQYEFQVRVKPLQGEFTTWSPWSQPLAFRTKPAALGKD

B1: G1 (antibody)
heavy: not shown
light: DIQMTQTTSSLSASLGDRVTINCRASQDISNFLNWYQQKPDGTLKLLIYYTSGLHSGVPSRFSGSGSGTDYSLTISNLEEEDIATYFCQQDNNHPYTFGSGTKLEIKRTVAAPSVFIFPPSDEQLKSGTASVVCLLNNFYPREAKVQWKVDNALQSGNSQESVTEQDSKDSTYSLSSTLTLSKADYEKHKVYACEVTHQGLSSPVTKSFNRGEC
notes: Chimeric: mouse parental variable domains in human IgG1 (G1M17 allotype), kappa; also called M5 IgG1 parental; G1 mouse parental IgG1 chimera
B2: G11 (antibody, human IgG4 S228P, kappa)
heavy: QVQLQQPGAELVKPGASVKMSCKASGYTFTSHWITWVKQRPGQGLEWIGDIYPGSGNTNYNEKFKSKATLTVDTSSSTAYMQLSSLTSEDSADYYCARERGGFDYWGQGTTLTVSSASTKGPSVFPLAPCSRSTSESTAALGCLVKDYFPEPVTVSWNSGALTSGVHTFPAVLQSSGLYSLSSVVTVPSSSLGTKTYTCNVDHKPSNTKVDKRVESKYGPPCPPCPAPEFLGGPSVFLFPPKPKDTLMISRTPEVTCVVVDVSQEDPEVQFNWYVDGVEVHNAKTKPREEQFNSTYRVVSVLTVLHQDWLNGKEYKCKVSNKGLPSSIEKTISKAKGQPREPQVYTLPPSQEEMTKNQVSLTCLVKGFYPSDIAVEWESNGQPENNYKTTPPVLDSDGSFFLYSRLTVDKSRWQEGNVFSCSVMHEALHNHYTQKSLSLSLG
light: B1 light
notes: Chimeric: mouse parental variable domains in human IgG4 (S228P), kappa; also called M5 IgG4 parental; G11 mouse parental IgG4 chimera
B3: G15 (antibody, human IgG4 S228P, kappa)
heavy: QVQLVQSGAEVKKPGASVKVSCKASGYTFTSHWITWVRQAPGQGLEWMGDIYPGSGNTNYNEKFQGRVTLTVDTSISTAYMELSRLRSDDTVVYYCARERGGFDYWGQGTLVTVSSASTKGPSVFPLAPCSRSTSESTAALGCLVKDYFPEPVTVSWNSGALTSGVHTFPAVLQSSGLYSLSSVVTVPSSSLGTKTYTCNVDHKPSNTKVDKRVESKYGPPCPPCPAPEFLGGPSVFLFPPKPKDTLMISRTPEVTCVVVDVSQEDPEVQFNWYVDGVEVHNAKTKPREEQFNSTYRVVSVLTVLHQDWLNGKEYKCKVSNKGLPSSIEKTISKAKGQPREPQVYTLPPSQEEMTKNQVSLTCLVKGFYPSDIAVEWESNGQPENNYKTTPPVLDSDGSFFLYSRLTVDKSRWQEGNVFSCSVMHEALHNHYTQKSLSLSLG
light: DIQMTQSPSSLSASVGDRVTITCRASQDISNFLNWYQQKPEGTLKLLIYYTSGLHSGVPSRFSGSGSGTDFTLTISSLQPEDVATYYCQQDNNHPYTFGQGTKLEIKRTVAAPSVFIFPPSDEQLKSGTASVVCLLNNFYPREAKVQWKVDNALQSGNSQESVTEQDSKDSTYSLSSTLTLSKADYEKHKVYACEVTHQGLSSPVTKSFNRGEC
notes: Humanized, human IgG4 (S228P), kappa
B4: G5 (antibody, human IgG1, kappa)
heavy: not shown
light: B3 light
notes: Humanized, human IgG1 (G1M17), kappa
B5: G12 (antibody, human IgG4 S228P, kappa)
heavy: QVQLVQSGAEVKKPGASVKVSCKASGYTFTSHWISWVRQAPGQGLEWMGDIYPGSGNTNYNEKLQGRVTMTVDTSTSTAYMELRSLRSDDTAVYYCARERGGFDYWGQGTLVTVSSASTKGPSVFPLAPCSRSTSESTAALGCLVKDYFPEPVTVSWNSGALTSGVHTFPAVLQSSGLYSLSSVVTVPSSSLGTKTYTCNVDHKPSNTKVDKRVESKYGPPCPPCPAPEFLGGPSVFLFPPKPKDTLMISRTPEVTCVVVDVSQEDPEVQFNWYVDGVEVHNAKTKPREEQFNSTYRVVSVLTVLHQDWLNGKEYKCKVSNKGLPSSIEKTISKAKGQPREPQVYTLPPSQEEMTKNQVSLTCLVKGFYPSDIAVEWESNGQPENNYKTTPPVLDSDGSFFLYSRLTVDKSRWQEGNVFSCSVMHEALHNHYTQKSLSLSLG
light: B3 light
notes: as for B3
B6: G8 (antibody, human IgG1, kappa)
heavy: not shown
light: B3 light
notes: as for B4
B7: G2 (antibody, human IgG1, kappa)
heavy: not shown
light: B3 light
notes: as for B4
B8: G18 (antibody, human IgG4 S228P, kappa)
heavy: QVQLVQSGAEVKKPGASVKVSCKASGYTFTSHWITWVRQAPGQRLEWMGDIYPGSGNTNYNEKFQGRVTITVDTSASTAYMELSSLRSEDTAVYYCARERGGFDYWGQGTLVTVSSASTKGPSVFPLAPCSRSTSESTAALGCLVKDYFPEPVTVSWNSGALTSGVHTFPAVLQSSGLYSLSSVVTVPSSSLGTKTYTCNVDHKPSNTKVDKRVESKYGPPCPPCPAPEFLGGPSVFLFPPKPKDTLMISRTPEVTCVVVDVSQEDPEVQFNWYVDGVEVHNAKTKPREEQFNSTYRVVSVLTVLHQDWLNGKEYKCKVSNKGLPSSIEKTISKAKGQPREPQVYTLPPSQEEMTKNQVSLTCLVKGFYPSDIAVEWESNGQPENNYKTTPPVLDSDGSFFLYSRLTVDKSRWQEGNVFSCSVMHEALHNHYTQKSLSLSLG
light: B3 light
notes: as for B3

The target in the first assay is T1, huCD122-HIS (ARCO Bio | Cat No. …). The assay is described as follows: BLI Octet, antibody captured on AHC sensor, huCD122-His analyte, 1:1 fit. The procedure:
(§1) Based on Bio-Layer Interferometry (BLI), the Octet® BLI system is a fluidics-free instrument platform that enables real-time, label-free analysis for the determination of kinetics, affinity and antibody/protein quantitation. Binding experiments were performed on Octet HTX at 25° C. The analyte used was huCD122-HIS (ARCO Bio | Cat No. CD2-H5221) at a molecular weight of 25.4 kDa. The antibodies were loaded onto Anti-human Fc capture (AHC) sensors. The loaded sensors were dipped into serial dilutions of huCD122-His (Starting at 20 nM, 1:3 dilution, 4 points). Reference sample well (buffer) was used for data analysis. Kinetic constants were calculated using a monovalent (1:1) binding model. The assay buffer used was PBS with 0.1% BSA, […], pH 7.2. The regeneration buffer used was 10 mM Glycine buffer (pH 1.7). The four concentrations of huCD122-His used to determine anti-CD122 antibody binding and dissociation properties were 0.0 nM, 2.2 nM, 6.7 nM, and 20 nM. Sensorgram plots to display antibody binding characteristics were generated. The mouse parental chimera configurations in both IgG1 and IgG4 backbones (M5 IgG1 parental and M5 IgG4 parental) were tested as well as each combination of the humanized 3 HC and 3 LC variants in either an IgG1 or an IgG4 backbone.
With B1, the dissociation constant (Kd) was determined as 0.727 nM, the Response was found to be 0.381, the koff was found to be 0.0004 s⁻¹ and the on-rate constant (kon) is 549000 M⁻¹ s⁻¹.

For B2, the dissociation constant Kd was determined as 0.795 nM, the Response was 0.326, the koff is 0.000423 s⁻¹ and the kon stood at 532000 M⁻¹ s⁻¹.

As to B3, the Kd amounted to 1.37 nM, the Response came out at 0.337, the off-rate (koff) was 0.000639 s⁻¹ and the on-rate constant (kon) is 466000 M⁻¹ s⁻¹.

For the molecule B4, the Kd came out at 1.18 nM, the Response came to 0.377, the koff came to 0.000581 s⁻¹ and the on-rate (kon) turned out to be 494000 M⁻¹ s⁻¹.

In the case of B5, the dissociation constant Kd amounted to 1.08 nM, the Response was found to be 0.354, the dissociation rate constant (koff) worked out at 0.000488 s⁻¹ and the on-rate constant (kon) is 451000 M⁻¹ s⁻¹.

Turning to B6, the dissociation constant (Kd) came out at 0.943 nM, the Response turned out to be 0.389, the dissociation rate constant (koff) was 0.000425 s⁻¹ and the kon is 450000 M⁻¹ s⁻¹.

As to B7, the dissociation constant (Kd) was determined as 0.831 nM, the Response was determined as 0.372, the off-rate (koff) amounted to 0.000409 s⁻¹ and the kon turned out to be 492000 M⁻¹ s⁻¹.

Turning to B8, the dissociation constant (Kd) is 0.98 nM, the Response turned out to be 0.315, the koff worked out at 0.000453 s⁻¹ and the association rate constant (kon) was determined as 462000 M⁻¹ s⁻¹.

Another assay shares this target. As to the kind of experiment: BLI Octet, antibody captured on AHC sensor, huCD122-His analyte, 1:1 fit; second batch. How it is done: as §1
On to B2, for which the equilibrium dissociation constant (Kd) turned out to be 0.866 nM, the Response is 0.327, the koff worked out at 0.000491 s⁻¹ and the kon worked out at 567000 M⁻¹ s⁻¹.

For the molecule B3, the dissociation constant Kd stood at 1.33 nM, the Response is 0.312, the koff worked out at 0.000647 s⁻¹ and the kon was 485000 M⁻¹ s⁻¹.

Consider B5, for which the dissociation constant (Kd) is 1.43 nM, the Response worked out at 0.334, the koff was 0.000646 s⁻¹ and the association rate constant (kon) was found to be 452000 M⁻¹ s⁻¹.

A further assay shares this target. As to the kind of experiment: BLI Octet; reference: parental chimeras (G1, G11). How it is done:
as §1
Regarding B3, the “fold change in KD against the parental chimera” value (“fold change in KD” for short) was below 3 fold.

In the case of B4, the “fold change in KD” value is below 3 fold.

For the molecule B5, the “fold change in KD” value was below 3 fold.

In the case of B6, the “fold change in KD” value is below 3 fold.

Consider B7, for which the “fold change in KD” value was below 3 fold.

In the case of B8, the “fold change in KD” value is below 3 fold.
